In publication PMC314469, “Protein Interaction Networks by Proteome Peptide Scanning” (PLoS Biology, 2004):

T1: amphyphisin SH3 (AMPH_HUMAN), P49418
T1 chain: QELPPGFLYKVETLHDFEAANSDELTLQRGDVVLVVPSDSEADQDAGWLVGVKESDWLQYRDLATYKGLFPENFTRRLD


Columns and labels:
[1] = target: endophilin SH3 (SH3G2_HUMAN), Q99962; assay: SPOT array
[2] = target: T1, amphyphisin SH3 (AMPH_HUMAN), P49418; assay: SPOT array

Row | Binder | normalised SPOT signal, Boehringer light units (BLU); mean over the file's lines of this peptide [1] | normalised SPOT signal, Boehringer light units (BLU); mean over the file's lines of this peptide [2]
1 | IIRPPVRPPDPPSR [O60890 736-750] | 3430 | 3250
2 | IIHVISRPLKAPPA [Q9NRY3 784-797] | 71.7 | 83.7
3 | ALQSPKRPRSPGSN [P78347 665-678] | 256 | 31.5
4 | IDPALRRPGRFDRE [Q96IW6 580-593] | 108 | 314
5 | IKILPARPIKESEY [Q9P2U9 65-78] | 458 | 118
6 | ILGFPLRPNRGLYQ [O95972 116-129] | 3140 | 8510
7 | IKKDLSRPQKPQLV [P31629 870-883] | 96.8 | 107
8 | IEPQIRRPRSLSSP [O43165 457-470] | 365 | 113
9 | IFSTLKRPQVETKT [Q96NM3 19-32] | 36.9 | 39.7
10 | IEEVPPRPPSPPKK [Q16348 18-32] | 4240 | 225
11 | IDPALLRPGRLDKS [O43933 989-1002] | 0 | 619
12 | IKPFPSRPPVLTQE [Q9P2K1 327-341] | 437 | 48.4
13 | IFMYLRRPTEESVE [Q96RC0 189-202] | 165 | 111
14 | IFGPLKRPIVEFSL [Q9NW13 566-579] | 61.9 | 27.1
15 | ILAKISRPKKRAKT [P48048 178-191] | 58.3 | 123
16 | IGVSPGRPGKSVLF [Q92918 675-688] | 128 | 131

Row | Binder | normalised SPOT signal, Boehringer light units (BLU); mean over the file's lines of this peptide [1] | normalised SPOT signal, Boehringer light units (BLU); mean over the file's lines of this peptide [2]
17 | IIQELRRPKYTIYF [Q9Y4Z6 82-95] | 134 | 32
18 | IKFVIKRPELLTHS [P78347 534-547] | 63.7 | 28.9
19 | IIPSPKRPVKLLSG [P04114 925-938] | 1060 | 73.4
20 | ILGSPARPPFSFQP [Q96C66 716-730] | 1550 | 33
21 | ALRGLVRPHKKRKK [Q9NY93 500-513] | 108 | 54.6
22 | IGYDFRRPLAQLRE [O60288 996-1009] | 205 | 41.5
23 | IFDGIQRPLKDINE [P38607 97-110] | 127 | 81.7
24 | IFVAPKRPSPLPRA [Q9NZP6 64-77] | 7170 | 4170
25 | IKILLRRPNEKKSK [P32246 223-236] | 81 | 37.1
26 | ILDTLRRPKPVVDP [Q9NQU5 43-56] | 0 | 26.6
27 | IHSDPLRPRRETSH [P20849 240-253] | 1340 | 5480
28 | IKTPPKRPGGRRRG [Q15910 343-356] | 628 | 68.6
29 | IIRQIRRPKNVVLR [O94887 105-118] | 49.2 | 15.8
30 | ILGPPRRPSRHDNS [Q9NZN5 600-613] | 5800 | 17700
31 | IGRNIARPWKLIYY [Q15361 592-605] | 314 | 205
